Results from the Human Domainome abundance scans (Beltran et al. 2025).

B1: POU domain, class 2, transcription factor 1, residues 285 to 354; numbered along this chain, P14859 (parent)
chain: LEELEQFAKTFKQRRIKLGFTQGDVGLAMGKLYGNDFSQTTISRFEALNLSFKNMCKLKPLLEKWLNDAE

Variants of: B1
Assay: abundance fitness (aPCA) (normalised: wild type 0, dead -1); higher = more abundant; growth selection in yeast, the domain comes from the species named
Conditions: Homo sapiens

Abundance fitness: each site, then its substitutions
S43: T -0.007 | Q 0.029 | Y -0.053 | G -0.156 | K 0.121 | M -0.013 | P -0.03 | F -0.088 | C -0.033 | R 0.018 | N 0.005 | E -0.013 | D -0.161 | L -0.067 | A 0.035 | I -0.064 | H -0.077 | W -0.086
G34: D -0.036 | C -0.023 | P 0 | N -0.041 | F -0.276 | K -0.039 | A -0.027 | Y -0.165 | R -0.027 | I -0.189 | W -0.301 | T -0.16 | S -0.1 | H -0.097 | V -0.164 | E -0.01 | L -0.151
D36: S -0.05 | Q -0.034 | K -0.028 | F -0.19 | G -0.092 | N -0.043 | I -0.006 | C -0.036 | L 0.014 | V -0.029 | M -0.121 | P -0.058 | E -0.027 | Y -0.037 | R -0.047 | H -0.077 | A -0.049
Y33: C -0.04 | P -0.104 | H 0.031 | K -0.053 | T -0.061 | E -0.047 | A -0.045 | G -0.097 | I -0.019 | Q -0.067 | M -0.11 | F -0.031 | V -0.151 | W -0.122 | N -0.075 | S -0.039 | L -0.008 | D -0.125 | R -0.103
L50: Y -0.03 | A -0.121 | I -0.135 | C 0.007 | P -0.678 | W -0.148 | G -0.074 | M 0.038 | R -0.738 | E -0.041 | S -0.151 | N -0.385 | V -0.1 | D -0.026 | Q -0.207 | T -0.073
F52: K -0.024 | L -0.005 | R -0.001 | A 0.017 | I 0.013 | S -0.017 | H 0.059 | V 0.009 | E -0.035 | D 0.007 | W -0.002 | P -0.324 | C -0.037 | N -0.039 | T 0.02 | Y 0.001 | Q -0.059 | G -0.059 | M -0.026
A47: R -0.044 | N 0.033 | H -0.107 | Q 0.017 | S -0.048 | E 0.055 | K -0.015 | D 0.092 | G 0.001 | P -0.964 | L 0.054
K53: D -0.029 | A 0.049 | E 0.039 | C 0.015
Q39: G 0.005 | T 0.008 | C -0.037 | S 0.015 | R 0.005 | P -0.011 | M -0.056 | H 0.028 | E 0.013 | K 0.014 | D 0.008 | V -0.033 | I -0.057 | F -0.14 | A 0.015 | L -0.026 | N -0.055 | W -0.005
I42: G -1.09 | R -0.869 | K -0.789 | D -1.08 | W -0.655 | P -0.877 | L -0.074 | H -0.983 | M -0.276 | N -0.805 | Y -0.674 | C -0.336 | S -0.997 | A -0.655 | Q -0.948
L48: S -0.005 | R 0.004 | N -0.03 | Y -0.053 | A -0.054 | M -0.007 | K 0.084 | I 0.014 | F -0.054 | T -0.004 | W -0.142 | C 0.001 | V -0.085 | Q 0.006 | P -0.336
T41: C -0.08 | F -0.1 | W -0.088 | V -0.029 | P -0.209 | H -0.052 | N -0.029 | R -0.098 | E -0.163 | L -0.023 | K 0.022 | Q -0.028 | I -0.067 | M -0.029 | S 0.005 | D -0.018 | A -0.02
E46: V -0.852 | T -0.934 | Y -1.02 | N -0.783 | C -0.801 | H -0.856 | I -0.84 | K -0.658 | F -1 | L -1.01 | W -0.698 | D -0.754 | G -0.929 | Q -0.851
T40: Y 0.077 | P -0.032 | G -0.028 | Q 0.016 | F 0.067 | W -0.054 | H -0.035 | K -0.071 | C 0.019 | I -0.142 | S -0.007 | N 0.004 | R 0.014 | D -0.15 | M -0.059 | E -0.354 | L -0.001
N35: M -0.108 | T 0.002 | V -0.057 | P -0.031 | Q 0 | G 0.053 | R 0.008 | Y -0.494 | I 0.03 | K 0.006 | H 0.073 | S -0.038 | A -0.011 | E 0.025 | D 0.035
S38: D 0.048 | Q -0.03 | R -0.061 | E -0.03 | Y -0.271 | P -0.041 | F -0.199 | G 0.023 | A -0.038 | K -0.011 | N -0.032 | T 0.012
F45: S -0.864 | L -0.115 | T -0.847 | R -1.01 | I -0.382 | C -0.451 | H -0.952 | E -1.01 | M -0.137 | N -1.04 | W -0.247 | V -0.429 | K -0.97 | P -1.04 | Q -1.02 | Y -0.133 | A -0.62
S51: G 0.028 | A -0.055 | M -0.472 | W -0.982 | F -0.807 | T -0.035 | I -0.801 | H -0.076 | K -0.023 | L -0.579 | E 0.003 | C -0.086 | N -0.099 | Y -0.496 | P 0.002 | Q -0.09 | R -0.056
L32: R -0.031 | T 0.005 | S -0.154 | Q -0.012 | V -0.226 | N -0.054
R44: I -0.794 | P -1.02 | M -0.032 | Q 0.042 | Y -0.155 | S 0.015 | K -0.048 | C -0.053 | D -0.058 | E -0.059 | L -0.026 | N -0.165 | A 0.013 | H -0.027 | T -0.089 | W -0.253
N49: K -0.045 | T 0.03 | C -0.086 | G -0.002 | Y -0.063 | V -0.052 | E 0.043 | D 0.033 | H -0.063 | S -0.004 | I 0.025 | R -0.079 | F -0.279 | Q 0.007 | P -0.65 | W -0.218 | L -0.029
F37: T -0.059 | Q -0.214 | V 0.038 | Y -0.135 | I -0.011 | E -0.199 | P -0.148 | D 0.006 | G -0.211 | S -0.119 | N -0.337 | A -0.081 | L -0.003 | C 0.028 | K -0.184 | M -0.011 | R -0.355
